The source of these data is US20070232789A1 (UNIVERSITY OF MARYLAND BALTIMORE, published 2007).

In test [1] the target is T1, low-density lipoprotein receptor-related protein (LRP), purified (human, UniProt Q07954 20-4544).
T1 construct: mature; also called low density lipoprotein receptor-related protein/α2-macroglobulin receptor; LRP receptor
Description: heterologous displacement of ^125I-fVIII (1 nM) from immobilised LRP; HCh as unlabeled competitor. The protocol:
(§1) Solid-phase binding assays. […] Microtiter wells were coated with purified LRP or BSA (3 μg/ml) in 50 mM Tris, 0.15 M NaCl, pH 8.0, for 16 h and then blocked with 3% BSA in TBS. […] The radioactivity bound to the wells was counted using a γ-counter (Pharmacia). Affinity constants were derived from homologous and heterologous displacement data using the computer program LIGAND (Munson, P T and Rodbard, D. Anal. Biochem. 107:220-239 (1980)).

In test [2] the target is T1, low-density lipoprotein …. Description: homologous displacement of ^125I-A2 (5 nM) by unlabeled A2 on LRP-coated wells, LIGAND fit.
Test [3] addresses T1, low-density lipoprotein …. Description: heterologous displacement of ^125I-fVIII (1 nM) from immobilised LRP; isolated A2 domain as unlabeled competitor. How it is done:
as §1

Test [4] deals with LRP on mouse embryonic fibroblasts (MEF cells) (mouse, UniProt Q91ZX7 20-4545). Description: cell-based or functional assay.

T1 sequence (Q07954 20-4544, form in doubt): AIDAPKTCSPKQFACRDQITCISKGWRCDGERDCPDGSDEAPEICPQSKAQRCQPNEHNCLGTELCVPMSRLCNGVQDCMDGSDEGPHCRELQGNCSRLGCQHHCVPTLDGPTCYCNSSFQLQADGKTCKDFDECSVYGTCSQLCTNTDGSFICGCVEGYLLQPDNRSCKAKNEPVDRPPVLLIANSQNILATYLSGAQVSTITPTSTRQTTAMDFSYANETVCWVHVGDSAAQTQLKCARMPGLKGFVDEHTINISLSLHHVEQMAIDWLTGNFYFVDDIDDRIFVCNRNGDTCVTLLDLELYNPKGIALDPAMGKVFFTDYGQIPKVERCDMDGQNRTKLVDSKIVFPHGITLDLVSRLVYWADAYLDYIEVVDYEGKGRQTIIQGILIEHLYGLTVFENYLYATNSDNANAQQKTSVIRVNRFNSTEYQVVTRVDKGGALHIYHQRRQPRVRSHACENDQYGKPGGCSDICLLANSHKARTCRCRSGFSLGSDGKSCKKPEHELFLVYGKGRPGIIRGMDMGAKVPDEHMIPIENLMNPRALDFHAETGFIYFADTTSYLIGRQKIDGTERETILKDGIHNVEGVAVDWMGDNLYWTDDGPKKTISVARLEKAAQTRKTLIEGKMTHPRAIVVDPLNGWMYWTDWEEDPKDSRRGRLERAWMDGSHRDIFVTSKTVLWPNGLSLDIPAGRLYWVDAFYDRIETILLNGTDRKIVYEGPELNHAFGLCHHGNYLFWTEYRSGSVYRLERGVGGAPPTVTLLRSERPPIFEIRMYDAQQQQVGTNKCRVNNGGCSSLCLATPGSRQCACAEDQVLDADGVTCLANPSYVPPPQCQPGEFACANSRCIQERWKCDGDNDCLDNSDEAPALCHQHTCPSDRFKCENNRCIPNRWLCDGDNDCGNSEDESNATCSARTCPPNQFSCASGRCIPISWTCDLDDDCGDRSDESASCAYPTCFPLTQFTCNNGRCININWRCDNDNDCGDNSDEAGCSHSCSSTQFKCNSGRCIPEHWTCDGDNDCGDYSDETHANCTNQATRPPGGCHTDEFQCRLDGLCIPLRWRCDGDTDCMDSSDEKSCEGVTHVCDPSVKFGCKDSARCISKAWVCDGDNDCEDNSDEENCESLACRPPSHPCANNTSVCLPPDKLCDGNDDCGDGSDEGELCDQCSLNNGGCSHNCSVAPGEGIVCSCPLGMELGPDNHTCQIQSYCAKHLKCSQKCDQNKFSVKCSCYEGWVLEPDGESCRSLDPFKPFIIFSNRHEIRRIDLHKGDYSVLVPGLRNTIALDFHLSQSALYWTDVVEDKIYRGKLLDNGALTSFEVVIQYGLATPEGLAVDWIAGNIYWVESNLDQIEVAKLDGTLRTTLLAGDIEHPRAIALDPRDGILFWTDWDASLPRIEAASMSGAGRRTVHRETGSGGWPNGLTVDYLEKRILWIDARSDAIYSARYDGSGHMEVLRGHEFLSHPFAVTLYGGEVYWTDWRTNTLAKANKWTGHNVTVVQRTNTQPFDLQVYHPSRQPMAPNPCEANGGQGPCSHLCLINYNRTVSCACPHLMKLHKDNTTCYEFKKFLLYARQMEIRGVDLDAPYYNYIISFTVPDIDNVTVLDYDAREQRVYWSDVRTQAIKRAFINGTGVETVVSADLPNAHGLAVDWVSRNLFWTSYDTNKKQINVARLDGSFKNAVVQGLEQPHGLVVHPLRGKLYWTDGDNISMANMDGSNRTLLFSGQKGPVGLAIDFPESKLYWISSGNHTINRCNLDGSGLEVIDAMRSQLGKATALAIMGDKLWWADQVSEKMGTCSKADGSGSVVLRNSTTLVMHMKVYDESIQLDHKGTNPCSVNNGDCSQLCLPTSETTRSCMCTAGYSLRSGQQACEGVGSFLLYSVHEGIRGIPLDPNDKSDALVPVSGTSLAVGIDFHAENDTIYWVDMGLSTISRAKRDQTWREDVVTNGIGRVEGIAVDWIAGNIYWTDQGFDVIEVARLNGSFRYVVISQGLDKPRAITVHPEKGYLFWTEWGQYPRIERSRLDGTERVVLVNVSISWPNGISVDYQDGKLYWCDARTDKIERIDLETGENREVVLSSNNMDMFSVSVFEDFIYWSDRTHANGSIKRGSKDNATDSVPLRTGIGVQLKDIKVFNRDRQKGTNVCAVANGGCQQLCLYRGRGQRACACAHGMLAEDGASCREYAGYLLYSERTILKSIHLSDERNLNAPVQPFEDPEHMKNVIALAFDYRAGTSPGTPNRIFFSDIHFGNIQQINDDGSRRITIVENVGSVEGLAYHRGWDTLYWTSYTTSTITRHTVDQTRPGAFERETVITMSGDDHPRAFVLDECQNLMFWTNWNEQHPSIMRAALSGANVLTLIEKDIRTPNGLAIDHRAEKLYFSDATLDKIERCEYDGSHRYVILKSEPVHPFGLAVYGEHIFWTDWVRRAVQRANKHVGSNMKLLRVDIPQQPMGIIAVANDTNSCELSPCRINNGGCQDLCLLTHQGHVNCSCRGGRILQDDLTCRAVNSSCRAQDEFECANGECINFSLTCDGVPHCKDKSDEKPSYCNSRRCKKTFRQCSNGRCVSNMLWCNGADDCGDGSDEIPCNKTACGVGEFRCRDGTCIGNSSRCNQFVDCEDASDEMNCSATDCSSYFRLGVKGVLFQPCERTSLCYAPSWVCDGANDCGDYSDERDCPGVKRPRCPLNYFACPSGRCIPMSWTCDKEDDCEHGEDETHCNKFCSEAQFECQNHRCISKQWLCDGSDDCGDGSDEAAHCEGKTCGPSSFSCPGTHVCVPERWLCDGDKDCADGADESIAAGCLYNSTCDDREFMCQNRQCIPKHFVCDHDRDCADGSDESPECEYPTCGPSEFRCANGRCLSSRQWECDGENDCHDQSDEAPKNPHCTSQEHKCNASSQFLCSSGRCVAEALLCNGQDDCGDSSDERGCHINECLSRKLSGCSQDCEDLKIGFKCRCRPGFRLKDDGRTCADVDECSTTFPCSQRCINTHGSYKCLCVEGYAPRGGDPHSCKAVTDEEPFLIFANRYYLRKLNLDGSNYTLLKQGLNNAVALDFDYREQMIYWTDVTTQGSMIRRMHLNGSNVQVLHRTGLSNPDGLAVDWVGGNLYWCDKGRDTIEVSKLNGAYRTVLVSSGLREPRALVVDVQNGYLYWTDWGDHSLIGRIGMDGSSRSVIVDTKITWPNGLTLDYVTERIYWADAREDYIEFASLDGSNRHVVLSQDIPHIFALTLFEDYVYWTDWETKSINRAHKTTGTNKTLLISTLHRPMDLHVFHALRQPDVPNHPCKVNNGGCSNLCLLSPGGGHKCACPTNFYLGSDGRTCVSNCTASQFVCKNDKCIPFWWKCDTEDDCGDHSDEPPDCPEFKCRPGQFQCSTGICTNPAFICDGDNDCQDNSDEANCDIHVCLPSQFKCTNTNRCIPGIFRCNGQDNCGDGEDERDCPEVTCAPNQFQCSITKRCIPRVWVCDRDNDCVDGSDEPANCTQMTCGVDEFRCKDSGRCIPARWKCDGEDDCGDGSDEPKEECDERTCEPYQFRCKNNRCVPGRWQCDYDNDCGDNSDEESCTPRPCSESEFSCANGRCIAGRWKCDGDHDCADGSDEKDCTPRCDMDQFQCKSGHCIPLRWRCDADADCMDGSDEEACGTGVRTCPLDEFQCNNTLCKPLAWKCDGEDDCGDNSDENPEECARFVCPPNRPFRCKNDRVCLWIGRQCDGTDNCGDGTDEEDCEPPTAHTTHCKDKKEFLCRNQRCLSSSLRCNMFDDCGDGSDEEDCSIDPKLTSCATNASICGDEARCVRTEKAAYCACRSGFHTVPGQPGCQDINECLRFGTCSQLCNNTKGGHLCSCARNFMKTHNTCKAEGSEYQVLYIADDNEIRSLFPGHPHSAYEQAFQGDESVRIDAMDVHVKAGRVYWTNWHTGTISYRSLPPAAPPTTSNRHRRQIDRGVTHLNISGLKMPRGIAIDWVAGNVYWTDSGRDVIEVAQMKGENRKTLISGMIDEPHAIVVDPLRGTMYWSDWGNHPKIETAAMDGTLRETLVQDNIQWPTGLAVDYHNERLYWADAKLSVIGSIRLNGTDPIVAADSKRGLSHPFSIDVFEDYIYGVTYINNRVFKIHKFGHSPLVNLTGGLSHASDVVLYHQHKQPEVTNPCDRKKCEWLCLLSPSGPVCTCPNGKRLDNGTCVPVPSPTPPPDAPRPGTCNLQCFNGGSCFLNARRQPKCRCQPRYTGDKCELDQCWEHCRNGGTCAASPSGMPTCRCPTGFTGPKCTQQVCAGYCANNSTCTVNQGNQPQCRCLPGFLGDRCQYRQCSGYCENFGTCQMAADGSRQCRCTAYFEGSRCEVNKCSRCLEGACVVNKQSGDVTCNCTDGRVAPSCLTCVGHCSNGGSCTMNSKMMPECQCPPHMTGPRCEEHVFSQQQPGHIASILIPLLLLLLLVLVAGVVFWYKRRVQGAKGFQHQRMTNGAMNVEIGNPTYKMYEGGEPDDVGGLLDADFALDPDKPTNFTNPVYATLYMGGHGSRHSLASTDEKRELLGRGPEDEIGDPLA

B1: heavy chain of factor VIII (HCh) (other)
chain: ATRRYYLGAVELSWDYMQSDLGELPVDARFPPRVPKSFPFNTSVVYKKTLFVEFTDHLFNIAKPRPPWMGLLGPTIQAEVYDTVVITLKNMASHPVSLHAVGVSYWKASEGAEYDDQTSQREKEDDKVFPGGSHTYVWQVLKENGPMASDPLCLTYSYLSHVDLVKDLNSGLIGALLVCREGSLAKEKTQTLHKFILLFAVFDEGKSWHSETKNSLMQDRDAASARAWPKMHTVNGYVNRSLPGLIGCHRKSVYWHVIGMGTTPEVHSIFLEGHTFLVRNHRQASLEISPITFLTAQTLLMDLGQFLLFCHISSHQHDGMEAYVKVDSCPEEPQLRMKNNEEAEDYDDDLTDSEMDVVRFDDDNSPSFIQIRSVAKKHPKTWVHYIAAEEEDWDYAPLVLAPDDRSYKSQYLNNGPQRIGRKYKKVRFMAYTDETFKTREAIQHESGILGPLLYGEVGDTLLIIFKNQASRPYNIYPHGITDVRPLYSRRLPKGVKHLKDFPILPGEIFKYKWTVTVEDGPTKSDPRCLTRYYSSFVNMERDLASGLIGPLLICYKESVDQRGNQIMSDKRNVILFSVFDENRSWYLTENIQRFLPNPAGVQLEDPEFQASNIMHSINGYVFDSLQLSVCLHEVAYWYILSIGAQTDFLSVFFSGYTFKHKMVYEDTLTLFPFSGETVFMSMENPGLWILGCHNSDFRNRGMTALLKVSSCDKNTGDYYEDSYEDISAYLLSKNNAIEPRSFSQNSRHRSTRQKQFNATTIPENDIEKTDPWFAHRTPMPKIQNVSSSDLLMLLRQSPTPHGLSLSDLQEAKYETFSDDPSPGAIDSNNSLSEMTHFRPQLHHSGDMVFTPESGLQLRLNEKLGTTAATELKKLDFKVSSTSNNLISTIPSDNLAAGTDNTSSLGPPSMPVHYDSQLDTTLFGKKSSPLTESGGPLSLSEENNDSKLLESGLMNSQESSWGKNVSSTESGRLFKGKRAHGPALLTKDNALFKVSISLLKTNKTSNNSATNRKTHIDGPSLLIENSPSVWQNILESDTEFKKVTPLIHDRMLMDKNATALRLNHMSNKTTSSKNMEMVQQKKEGPIPPDAQNPDMSFFKMLFLPESARWIQRTHGKNSLNSGQGPSPKQLVSLGPEKSVEGQNFLSEKNKVVVGKGEFTKDVGLKEMVFPSSRNLFLTNLDNLHENNTHNQEKKIQEEIEKKETLIQENVVLPQIHTVTGTKNFMKNLFLLSTRQNVEGSYDGAYAPVLQDFRSLNDSTNRTKKHTAHFSKKGEEENLEGLGNQTKQIVEKYACTTRISPNTSQQNFVTQRSKRALKQFRLPLEETELEKRIIVDDTSTQWSKNMKHLTPSTLTQIDYNEKEKGAITQSPLSDCLTRSHSIPQANRSPLPIAKVSSFPSIRPIYLTRVLFQDNSSHLPAASYRKKDSGVQESSHFLQGAKKNNLSLAILTLEMTGDQREVGSLGTSATNSVTYKKVENTVLPKPDLPKTSGKVELLPKVHIYQKDLFPTETSNGSPGHLDLVEGSLLQGTEGAIKWNEANRPGKVPFLRVATESSAKTPSKLLDPLAWDNHYGTQIPKEEWKSQEKSPEKTAFKKKDTILSLNACESNHAIAAINEGQNKPEIEVTWAKQGRTERLCSQNPPVLKRHQR
notes: Prepared from plasma-derived fVIII
By Ki is commonly meant a measure of affinity in units of concentration, obtained from inhibition or displacement. The low end stands for tighter binding, the high end for weaker binding. Turning to B1, in test [1], the Ki is 120 nM.

B2: A2 subunit of factor VIII, plasma-derived (from thrombin-activated fVIII) (other)
chain: SVAKKHPKTWVHYIAAEEEDWDYAPLVLAPDDRSYKSQYLNNGPQRIGRKYKKVRFMAYTDETFKTREAIQHESGILGPLLYGEVGDTLLIIFKNQASRPYNIYPHGITDVRPLYSRRLPKGVKHLKDFPILPGEIFKYKWTVTVEDGPTKSDPRCLTRYYSSFVNMERDLASGLIGPLLICYKESVDQRGNQIMSDKRNVILFSVFDENRSWYLTENIQRFLPNPAGVQLEDPEFQASNIMHSINGYVFDSLQLSVCLHEVAYWYILSIGAQTDFLSVFFSGYTFKHKMVYEDTLTLFPFSGETVFMSMENPGLWILGCHNSDFRNRGMTALLKVSSCDKNTGDYYEDSYEDISAYLLSKNNAIEPR
notes: Radio-iodinated where used as tracer; also called A2 domain; plasma-derived A2
Broadly, the Kd is the equilibrium constant for the complex coming apart. In the case of B2, the affinity in test [2], expressed as Kd, was 130 nM. The molecule further returned a Ki in test [3] of 132 nM. Besides, in test [4], the “inhibition of degradation of ^125I-fVIII/vWf complex by MEF cells by a 1000-fold excess of A2” value was greater than 60% and the “inhibition of internalization of ^125I-fVIII/vWf complex by MEF cells by a 1000-fold excess of A2” value is greater than 70%.
